Measured values taken from US20030013634A1, “Synthesis of small particles” (priority 2000, published 2003).

How the values were obtained:
[1] = Biochemical integrity by size exclusion chromatography (monomer content); type: physicochemical; details: for biological activity as indicated by the in vitro test for monomer content: after processing with the anti-solvent
Experimental: A protein-Pak 125 column (Waters, USA) was used for insulin. The mobile phase consisted of 50 mM sodium phosphate buffer at pH 3 with 300 mM sodium chloride. The powder samples were dissolved to prepare 1 mg/mL solution in deionised water by gentle shaking for 10 minutes to have complete dissolution. The supernatant was filtered through […] membrane filter and then injected into the HPLC column. […] The software Millennium 3.5 was used in the quantification of the monomer content.

[2] = Median particle size by laser diffraction; type: physicochemical; details: for median particle size: laser diffraction, agglomerated insulin powder, Example 5
Source text: These fine insulin particles may aggregate to form larger particles due to intermolecular interaction between the molecules. […] Insulin precipitated as nano-sized particles, was also agglomerated to micron-sized particles.

[3] = Aerosol characterisation by impaction (Marple-Miller / Cascade Impactor); type: physicochemical
Experimental: In order to determine the aerosol performance of the protein particles, in vitro testing of the particles was assessed using a 5 stage Marple-Miller Impactor (Model 160, MSP Corporation, USA) with cut-off diameters of […]. The Marple-Miller impactor consisted of a stainless steel inlet throat, five impaction stages and an integral filter stage. The stages were previously coated with propylene glycol/methanol (50:50) to prevent particle bounce, thus minimising the probability of carry over of coarse particles onto lower stages.
A mass of 10-20 mg of insulin was weighed into a gelatin capsule (size 3, Park Davis, Australia) and was immediately dispersed by a powder inhaler device, Dinkihaler (Aventis, Frankfurt, Germany) into the Marple Miller Impactor at 60 L/min using a vacuum source (ERWEKA GMBH, Germany).
The fraction of the protein recovered in each stage was calculated by measuring the absorbance of the protein solution against the absorbance of a standard 1% solution of insulin.

[4] = values reported in the literature; cited from earlier work
[5] = Insulin deamidation testing by reverse phase HPLC; type: physicochemical; details: 2 mg/mL, after particle formation
Experimental: In order to determine the percentage of insulin that was deamidated by the process, a test of the insulin was performed using high performance liquid chromatography (HPLC). A reverse phase column (Symmetry® C18, 5 μm packing, 4.6 mm×150 mm) was used to separate the deamidated from the non-deamidated insulin. The gradient method was used with eluents 0.1% trifluoroacetic acid/acetonitrile 26% to 33% and the flow rate of 1 mL/min. The absorbance was monitored at 280 nm.
The percentage of deamido insulin was determined by comparing the peak area of the degradation product to the area of standard insulin containing the same concentration of insulin (2 mg/mL).

[6] = Particle size and morphology by SEM; type: physicochemical
Source text: These fine insulin particles may aggregate to form larger particles due to intermolecular interaction between the molecules.

Row | Substance | biological activity as indicated by the in vitro test for monomer content [1] | D(0.5, V) median particle size based on volume ([2]; 2-stage process) | D(0.5, V) median particle size based on volume ([2]; single stage production unit) | FPM (%) fine particle mass, mass fraction of particles below 5 μm ([3]; 2-stage process) [%] | increase in the amount of material less than 5 μm aerodynamic diameter ([3]; 2-stage versus single stage process) [%] | fraction of particles with a size >10 μm ([3]; aerodynamic particle size distribution, FIG. 4) | FPM (%) fine particle mass, mass fraction of particles below 5 μm ([3]; single stage production unit) [%] | maximum FPM obtained by other methods [4] [%] | percentage of deamido insulin [5] [%] | size of nano-sized particles ([6]; modified dual vessel apparatus (FIG. 10b)) | size of nano-sized particles ([6]; single-stage apparatus (FIG. 9b)) | monomer content ([1]; 1 mg/mL in deionised water, after particle formation) [%] | median particle size [2] [μm] | median particle size ([2]; listed as Insulin) | fine particle fraction (% <5 μm) ([3]; Marple Miller Impactor, Dinkihaler, 60 L/min)
1 | CO2-ethanol: Insulin particles precipitated using carbon dioxide modified with 20 mol % ethanol as anti-solvent (comparison) | significant deactivation | 8.2 +/− 0.6 | 11.8 +/− 1.6 | 21.9 |  |  |  |  |  |  |  |  |  |  | 
2 | Ethane-ethanol | retention of biological activity | 4.8 +/− 0.4 | 12.8 +/− 1.0 | 43.5 | 100 | around 45% | 20.0 |  |  |  |  |  |  |  | 
3 | insulin: Low endotoxin bovine insulin (Sigma), precipitated as fine particles from aqueous solution by the ASES process |  |  |  | 45 |  |  | 20 | ≤ 10 | 3.0 | 50-500 nm | 50-500 nm | 99.5 | 5 | about 5 μm | at least 42%
